Tests used:
[1] = biological target: Latent TGFβ Binding Protein-1, short form (LTBP1S), full length; assay: negative stain EM; LTBP1 oligomers imaged by negative stain EM; lengths measured with ImageJ (n = 100 from 32 images)
[2] = biological target: Latent TGFβ Binding Protein-1, short form (LTBP1S), full length; assay: SEC-MALS; Superdex 200 or Superose 6; 0.5 ml at ~0.5 mg/ml; 10 mM Tris, 150 mM NaCl, 2 mM CaCl2, pH 7.4; self-association; NT2 monomer also stored overnight at 4 °C in 2 mM calcium and the dimer fraction rerun
[3] = biological target: the molecule itself; assay: as above
[4] = biological target: the molecule itself; assay: AUC; ~0.5 mg/ml; 10 mM Tris, 150 mM NaCl, 2 mM CaCl2, pH 7.4; self-association; NT1 also after 12 h pre-incubation with ~10x molar excess of low molecular weight heparin

“Latent TGFβ Binding Protein-1, short form (LTBP1S), full length (natural protein)” gave a stoichiometry N [1] of 4 to 5 and a stoichiometry N [2] of 4 to 5.

B1: LTBP1 N-terminal construct NT2 (residues 21–630) (domain or fragment, UniProt Q14766-2 21-630, looked up)
chain: NHTGRIKVVFTPSICKVTCTKGSCQNSCEKGNTTTLISENGHAADTLTATNFRVVICHLPCMNGGQCSSRDKCQCPPNFTGKLCQIPVHGASVPKLYQHSQQPGKALGTHVIHSTHTLPLTVTSQQGVKVKFPPNIVNIHVKHPPEASVQIHQVSRIDGPTGQKTKEAQPGQSQVSYQGLPVQKTQTIHSTYSHQQVIPHVYPVAAKTQLGRCFQETIGSQCGKALPGLSKQEDCCGTVGTSWGFNKCQKCPKKPSYHGYNQMMECLPGYKRVNNTFCQDINECQLQGVCPNGECLNTMGSYRCTCKIGFGPDPTFSSCVPDPPVISEEKGPCYRLVSSGRQCMHPLSVHLTKQLCCCSVGKAWGPHCEKCPLPGTAAFKEICPGGMGYTVSGVHRRRPIHHHVGKGPVFVKPKNTQPVAKSTHPPPLPAKEEPVEALTFSREHGPGVAEPEVATAPPEKEIPSLDQEKTKLEPGQPQLSPGISTIHLHPQFPVVIEKTSPPVPVEVAPEASTSSASQVIAPTQVTEINECTVNPDICGAGHCINLPVRYTCICYEGYRFSEQQRKCVDIDECTQVQHLCSQGRCENTEGSFLCICPAGFMASEEGTNCI
notes: LTBP1S residues 21-630; also called NT2 region
In the case of B1, the “stoichiometry N” value [3] is reported as 2.

B2: LTBP1 N-terminal construct NT1 (residues 21–488) (domain or fragment, UniProt Q14766-2 21-488, looked up)
chain: NHTGRIKVVFTPSICKVTCTKGSCQNSCEKGNTTTLISENGHAADTLTATNFRVVICHLPCMNGGQCSSRDKCQCPPNFTGKLCQIPVHGASVPKLYQHSQQPGKALGTHVIHSTHTLPLTVTSQQGVKVKFPPNIVNIHVKHPPEASVQIHQVSRIDGPTGQKTKEAQPGQSQVSYQGLPVQKTQTIHSTYSHQQVIPHVYPVAAKTQLGRCFQETIGSQCGKALPGLSKQEDCCGTVGTSWGFNKCQKCPKKPSYHGYNQMMECLPGYKRVNNTFCQDINECQLQGVCPNGECLNTMGSYRCTCKIGFGPDPTFSSCVPDPPVISEEKGPCYRLVSSGRQCMHPLSVHLTKQLCCCSVGKAWGPHCEKCPLPGTAAFKEICPGGMGYTVSGVHRRRPIHHHVGKGPVFVKPKNTQPVAKSTHPPPLPAKEEPVEALTFSREHGPGVAEPEVATAPPEKEIPSLDQE
notes: LTBP1S residues 21-488; also called NT1 region
B2 was tested, and the “stoichiometry N” value [4] was 2.
